In PMC9126950, “SARS-CoV-2 detection using a nanobody-functionalized voltammetric device” (Communications Medicine, 2022):

How the values were obtained:
[1] = target: T1, SARS-CoV-2 spike receptor binding domain (RBD), recombinant (SARS-CoV-2, UniProt P0DTC2 319-541); assay: SPR; settings: both partners purified
T1 construct: also called SARS-CoV-2 RBD; Spike RBD

[2] = target: T2, SARS-CoV-2 spike receptor binding domain (RBD), recombinant (SARS-CoV-2, UniProt P0DTC2); assay: electrochemical titration (differential pulse voltammetry); settings: both partners purified
T2 construct: also called SARS-CoV-2 RBD; Spike RBD

Row | Binder | Kd [1] [nM] | Kd [2] [nM]
1 | VHH-72-C13 (VHH, also called VHH-72-13C; VHH-C13) VHH: QVQLQESGGGLVCAGGSLRLSCAASGRTFSEYAMGWFRQAPGKEREFVATISWSGGSTYYTDSVKGRFTISRDNAKNTVYLQMNSLKPDDTAVYYCAAAGLGTVVSEWDYDYDYWGQGTQVTVSS | 12.1 | –
2 | VHH-72 (VHH) VHH: QVQLQESGGGLVQAGGSLRLSCAASGRTFSEYAMGWFRQAPGKEREFVATISWSGGSTYYTDSVKGRFTISRDNAKNTVYLQMNSLKPDDTAVYYCAAAGLGTVVSEWDYDYDYWGQGTQVTVSS | – | 78
